“Also recorded” adds a separate entry of the source.
Assays:
[1] = molecular target: T1, human β3 complexed to endogenous mouse αv (Homo sapiens, UniProt P05106); assay: Flow cytometric analysis of binding to human β3 transfected B16F10 cells; conditions: mouse melanoma B16F10, human β3 with endogenous mouse αv, FACS, FIG. 3
T1 construct: expressed in transfected cells; host or cells: B16F10 mouse melanoma
T1 sequence (P05106 27-788): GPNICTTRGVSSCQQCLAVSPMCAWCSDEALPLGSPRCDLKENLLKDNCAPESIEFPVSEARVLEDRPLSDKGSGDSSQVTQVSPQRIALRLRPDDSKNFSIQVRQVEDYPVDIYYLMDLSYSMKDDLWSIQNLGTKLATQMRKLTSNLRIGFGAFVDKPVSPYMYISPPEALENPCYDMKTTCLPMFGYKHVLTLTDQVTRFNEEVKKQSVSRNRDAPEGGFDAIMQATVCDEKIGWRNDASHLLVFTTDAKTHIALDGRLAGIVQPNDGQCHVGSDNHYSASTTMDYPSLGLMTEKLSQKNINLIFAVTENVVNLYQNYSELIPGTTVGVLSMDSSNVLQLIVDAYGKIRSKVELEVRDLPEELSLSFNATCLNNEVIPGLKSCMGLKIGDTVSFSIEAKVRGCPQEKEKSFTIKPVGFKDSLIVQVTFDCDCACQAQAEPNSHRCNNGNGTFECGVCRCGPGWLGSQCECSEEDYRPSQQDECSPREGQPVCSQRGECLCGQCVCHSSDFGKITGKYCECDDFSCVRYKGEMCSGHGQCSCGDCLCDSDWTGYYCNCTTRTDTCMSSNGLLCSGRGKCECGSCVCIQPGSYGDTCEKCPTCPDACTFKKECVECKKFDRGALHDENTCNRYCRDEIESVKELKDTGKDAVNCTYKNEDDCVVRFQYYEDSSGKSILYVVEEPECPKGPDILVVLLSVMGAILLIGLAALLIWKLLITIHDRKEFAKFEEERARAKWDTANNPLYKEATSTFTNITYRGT
T1 sequence (P43406 31-885 partner limits assumed): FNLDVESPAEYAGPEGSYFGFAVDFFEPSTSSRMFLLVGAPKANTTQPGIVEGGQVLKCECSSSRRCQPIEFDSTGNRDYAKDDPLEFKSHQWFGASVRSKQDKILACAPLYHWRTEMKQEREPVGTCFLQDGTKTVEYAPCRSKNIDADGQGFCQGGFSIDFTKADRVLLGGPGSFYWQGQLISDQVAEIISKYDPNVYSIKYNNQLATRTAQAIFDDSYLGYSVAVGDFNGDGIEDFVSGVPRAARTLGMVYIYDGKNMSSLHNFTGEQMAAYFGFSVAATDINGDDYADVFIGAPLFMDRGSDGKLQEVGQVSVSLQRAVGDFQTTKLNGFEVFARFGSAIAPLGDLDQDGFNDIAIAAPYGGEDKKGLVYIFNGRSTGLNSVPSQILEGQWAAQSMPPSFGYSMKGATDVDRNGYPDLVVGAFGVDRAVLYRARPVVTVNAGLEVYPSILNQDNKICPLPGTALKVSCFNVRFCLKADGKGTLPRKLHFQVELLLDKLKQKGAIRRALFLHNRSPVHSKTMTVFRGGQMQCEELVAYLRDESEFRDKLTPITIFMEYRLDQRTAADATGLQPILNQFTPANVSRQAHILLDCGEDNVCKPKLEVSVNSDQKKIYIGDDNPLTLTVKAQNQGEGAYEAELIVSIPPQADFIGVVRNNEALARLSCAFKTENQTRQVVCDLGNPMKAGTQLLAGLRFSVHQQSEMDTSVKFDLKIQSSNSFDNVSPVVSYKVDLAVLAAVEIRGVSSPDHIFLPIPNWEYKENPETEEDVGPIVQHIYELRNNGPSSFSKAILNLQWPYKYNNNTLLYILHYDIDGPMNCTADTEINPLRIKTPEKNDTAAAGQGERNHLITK
T1 sequence (P43406 887-1044 partner limits assumed): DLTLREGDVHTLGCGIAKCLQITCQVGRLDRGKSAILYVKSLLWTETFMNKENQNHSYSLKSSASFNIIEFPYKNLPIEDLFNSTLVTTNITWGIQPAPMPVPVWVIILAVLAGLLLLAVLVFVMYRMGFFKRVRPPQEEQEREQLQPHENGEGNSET
Procedure: FIG. 3. Flow cytometric analysis of binding of Vitaxin® to human β3 transfected B16F10 cells. In order to determine the binding specificity of Vitaxin® for αvβ3, the mouse melanoma line B16F10 was transfected with an expression vector encoding the human β3 gene. Cells were analyzed by FACS for expression of β3 expressed with the endogenous mouse αv.

[2] = molecular target: T2, human β3 (αvβ3 on HEK293 cells) (Homo sapiens, UniProt P05106); assay: FACS analysis of HEK293 cells transfected with human β3 cDNA; format: binding; conditions: wild type human β3, flow cytometry, FIG. 4
T2 construct: expressed in transfected cells; host or cells: HEK293
T2 sequence (P06756 31-889 partner limits assumed, one chain of several): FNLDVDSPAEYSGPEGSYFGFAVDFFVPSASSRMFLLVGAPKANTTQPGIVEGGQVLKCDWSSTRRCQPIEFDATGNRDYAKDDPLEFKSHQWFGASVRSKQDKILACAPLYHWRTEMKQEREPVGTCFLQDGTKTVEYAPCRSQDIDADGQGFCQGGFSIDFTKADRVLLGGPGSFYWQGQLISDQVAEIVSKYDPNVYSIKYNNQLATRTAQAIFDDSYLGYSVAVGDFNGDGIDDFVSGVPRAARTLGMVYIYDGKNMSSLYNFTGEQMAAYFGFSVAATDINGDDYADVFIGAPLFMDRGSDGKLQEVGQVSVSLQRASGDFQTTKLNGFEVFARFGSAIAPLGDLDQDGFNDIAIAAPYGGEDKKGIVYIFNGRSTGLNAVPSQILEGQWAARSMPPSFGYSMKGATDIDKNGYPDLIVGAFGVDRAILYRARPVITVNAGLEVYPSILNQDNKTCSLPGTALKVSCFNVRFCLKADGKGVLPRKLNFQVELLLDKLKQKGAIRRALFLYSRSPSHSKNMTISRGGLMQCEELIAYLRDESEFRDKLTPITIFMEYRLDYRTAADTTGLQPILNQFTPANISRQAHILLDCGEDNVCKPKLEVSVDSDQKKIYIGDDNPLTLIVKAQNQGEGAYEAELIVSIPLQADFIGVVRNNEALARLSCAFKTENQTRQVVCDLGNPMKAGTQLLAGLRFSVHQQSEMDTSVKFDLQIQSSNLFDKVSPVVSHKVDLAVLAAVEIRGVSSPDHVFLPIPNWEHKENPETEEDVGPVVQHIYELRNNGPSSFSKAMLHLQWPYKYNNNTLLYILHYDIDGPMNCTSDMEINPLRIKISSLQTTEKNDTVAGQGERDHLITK
T2 sequence (P06756 891-1048 partner limits assumed, one chain of several): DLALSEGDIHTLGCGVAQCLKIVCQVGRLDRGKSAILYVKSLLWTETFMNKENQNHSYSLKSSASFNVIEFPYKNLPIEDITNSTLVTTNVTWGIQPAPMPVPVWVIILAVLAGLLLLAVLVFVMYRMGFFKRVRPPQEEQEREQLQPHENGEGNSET
Text: FIG. 4. Binding of Integrin αvβ3 specific antibodies to human β3 containing rat residues.
Sequence comparison of residues 164 to 202 of β3 integrins from different species and design of mutations. To further characterize the binding epitope of Vitaxin®, the gene encoding β3 was cloned and sequenced from hamster cDNA. The amino acids in the region previously proposed to contain the LM609 binding epitope are shown above (dashed lines depict conserved residues). To determine which residues in the human sequence were essential for antibody binding, the amino acids shown in color were mutated to the corresponding rat residues. The resulting genes were transfected to HEK293 cells which express endogenous human αv. Resulting cell lines were analyzed by flow cytometry for antibody binding.
This protocol is used to assess the surface expression of integrins in HEK-293 cells transfected with various Integrin subunits. Primary antibodies bound to the integrins are detected by fluorochrome-conjugated secondary antibodies and analyzed by flow cytometry.
1. Wash adherent cells twice with 5 ml of PBS.
2. Add 1.5 ml of trypsin solution or cell dissociation solution, incubate at 37_C. foir 2 min.
3. Add 3 ml of culture medium or FACs buffer to the plate and loosen cells from the plate by pipetting. Count cells. Resuspend cells in FACs buffer at 5×10^6 per ml.
4. […]

- binding to HEK293 cells transfected with human β3 cDNA [2]: detectable
B1: Vitaxin®: humanized blocking monoclonal antibody that binds Integrin αVβ3 (MEDI-522, MedImmune); humanized and optimized version of LM609 (antibody, chains of the INN, looked up, V domains shown)
VH: QVQLVESGGGVVQPGRSLRLSCAASGFTFSSYDMSWVRQAPGKGLEWVAKVSSGGGSTYYLDTVQGRFTISRDNSKNTLYLQMNSLRAEDTAVYYCARHLHGSFASWGQGTTVTVSS
VL: EIVLTQSPATLSLSPGERATLSCQASQSISNFLHWYQQRPGQAPRLLIRYRSQSISGIPARFSGSGSGTDFTLTISSLEPEDFAVYYCQQSGSWPLTFGGGTKVEIK
- binding to human β3 transfected B16F10 cells [1]: bound; also recorded: recognized the transfected cells

— patent US20040001835A1, “Prevention or treatment of cancer using integrin alphavbeta3 antagonists in combination with other agents” (MedImmune, Inc., priority 2002, published 2004)
